The series deals with MS2 coat protein. The experiment in a line: apparent KD of MS2 coat protein; designed switch direction (-1 OFF switch, 1 ON switch): -1; higher = weaker reporter binding. In outline:
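SNAP-549-labelled MS2 coat protein was titrated, doubling from 0.7 or 1.5 nM to 3 µM, over designed RNA switches transcribed on Illumina chips by stalled E. coli RNA polymerase. Runs were done without input, with 200 uM small-molecule ligand, or with an oligonucleotide input. Apparent KD is the per-design median over clusters of curve-fitted normalised fluorescence.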

The mark [1] stands for this setting: input ligand: microRNA oligo, concentration not stated.
The mark [2] stands for this setting: Eterna round: R95, input ligand: FMN 200 uM.
Setting [3] is: Eterna round: R95, input ligand: microRNA oligo, concentration not stated.
The mark [4] stands for this setting: Eterna round: R95, input ligand: none.

For the sequence “CUACAUCGAGGAUAUGCAAACGUAAACAUGAGGAUCACCCAUGUGACGUCAUAUUACGUAGUAGAAGGCGAAAAUA [Anlein] (Eterna round: R97, puzzle: Exclusion 5)”, the “apparent KD of MS2 coat protein” value reads like this: (input ligand: FMN 200 uM) 20.2 nM; (input ligand: none) 15.8 nM.

As to “CACCGUAACAGAGGAUAUGAUACAUGAGGAUCACCCAUGUAAUAAAUGAGAAUUUCGAAUGUACCUCAGAAGGCUGGAACCGGC [Ostricism 80 - Jieux - Exclusion NG 2] (Eterna round: R96, puzzle: Exclusion NG 2)”, under setting [1], the “apparent KD of MS2 coat protein” value amounted to 33.9 nM.

For the sequence “UUGCUCGUCUUGCUUCCUAACAUGAGGAUCACCCAUGUCGACGGUGAGACGCAAGAGCCAUCUCGCCGUUGAUCGUC [Eternabot (Original) Solution 4] (Eterna round: R97, puzzle: Sensor, turn-off variant 1)”, the “apparent KD of MS2 coat protein” value is, setting by setting: (input ligand: FMN 200 uM) 134 nM; (input ligand: none) 159 nM.

Turning to “GGCCCAUGAGGAUAUCAGUCUGGAUCAGACAAGAUCCUGACUGAGAAGGCACAUGAGGAUCACCCAUGUAGGCC [Mat - Exclusion 4 - Eli Mod - D53] (Eterna round: R97, puzzle: Exclusion 4)”, the “apparent KD of MS2 coat protein” value runs as follows: (input ligand: FMN 200 uM) 18.3 nM; (input ligand: none) 18.7 nM.

“GUCGAUGUCAAAGGAUAUCAGCACGUUUAGUGCUGAGAAGGUUGAACAUGAGGAUCACCCAUGUAGAUCAUUAACGACUUAAUU [ENG1/10-A1] (Eterna round: R96, puzzle: Exclusion NG 1)”: the “apparent KD of MS2 coat protein” value (input ligand: FMN 200 uM) amounted to 44.5 nM, the “apparent KD of MS2 coat protein” value under setting [1] was determined as 15.7 nM and the “apparent KD of MS2 coat protein” value (input ligand: none) worked out at 20.7 nM.

Turning to “AGUUGGCGAGGAUAUACAUGAGGAUCACCCAUGUGAGAGAUACUAGUGAGGUCGAUUAGGAGAAGGCGCUGACA [Mat X3R4 m20] (Eterna round: R97, puzzle: Exclusion 3)”, the “apparent KD of MS2 coat protein” value came to 63.1 nM (input ligand: FMN 200 uM) and 48 nM (input ligand: none).

Regarding “GCCUCACUUGAGGAUCACCCAAGUCAGGAUAUCUACAAGCCGGCCAUGCCAGCUUGCAAGAGAAGGGACUCUAA [Diazale] (Eterna round: R97, puzzle: Exclusion 1)”, the “apparent KD of MS2 coat protein” value is, setting by setting: (input ligand: FMN 200 uM) 205 nM; (input ligand: none) 31.6 nM.

Turning to “UCAAGUAUGUAGGAUAUCGAUGUCCUUGGACAUCGAGAAGGACGUACAUGAGGAUCACCCAUGUAACUUGCAUG [Exclusion 6 - B - 10:e] (puzzle: Exclusion 6)”, the “apparent KD of MS2 coat protein” value by setting is: under setting [2], 103 nM; under setting [3], 138 nM; under setting [4], 94.5 nM.

Regarding “CGUAUCUUUCACGUGAGUAGUGGGUGCAACAGGUGGGUCACAUGAGGAUCACCCAUGUACUCACUUGCUCGUCUUAU [Grok-var2-07] (puzzle: Sensor v3, turn-off variant 2)”, the “apparent KD of MS2 coat protein” value runs as follows: under setting [2], 24 nM; under setting [3], 14 nM; under setting [4], 21.8 nM.

For the sequence “CUCAGACAUGAGGAUCACCCAUGUGAGGAUAUGAUGCAGCAGUGGUCUACGCUGUGCAUCAGAAGGCACAUGUG (puzzle: Exclusion 1)”, the “apparent KD of MS2 coat protein” value under setting [3] was 33 nM.

For the sequence “CAGUACUGAGGAUAUACAUGAGGAUCACCCAUGUGCCUCAGGUAGGAUACUACCAUUAGUAGAAGGCAGUACUG [Fiskers Ex 3 828 mod 18] (puzzle: Exclusion 3)”, the “apparent KD of MS2 coat protein” value under setting [3] is 128 nM.

“UAUAUGUGAGGAUAUCCUUUAUUAAUUAUUAUAUUAUAUAUGGAGAAGGCACAUGAGGAUCACCCAUGUUAUAU [lam1] (Eterna round: R97, puzzle: Exclusion 4)”: the “apparent KD of MS2 coat protein” value is, setting by setting: (input ligand: FMN 200 uM) 72.8 nM; (input ligand: none) 42.1 nM.

In the case of “GCGGAAAACUUAGGAUAUCAGGGCUGCACAUGAGGAUCACCCAUGUGAUAGCUCUAACGCGGUCCUGAGAAGGGAGAGCCCGGA [Rarasoa] (Eterna round: R96, puzzle: Exclusion NG 2)”, the “apparent KD of MS2 coat protein” value came to 94.2 nM (input ligand: FMN 200 uM), 43.8 nM under setting [1] and 44.7 nM (input ligand: none).

With “AUAAAGUGAGGAUAUAUAAGACACGGUGAUACACCGUGAAAAUAGAAGGUACAUGAGGAUCACCCAUGUAGGGC [Mod of Anonveat 18 - Jieux - Exclusion 4] (Eterna round: R97, puzzle: Exclusion 4)”, the “apparent KD of MS2 coat protein” value amounted to 33.6 nM (input ligand: FMN 200 uM) and 29.4 nM (input ligand: none).

“GUCCUGGCUUUUCACAGGCACAUGAGGAUCACCCAUGUCGUGGGUAGAUCCCUCCCUGGGAAAUCUGCUCGUCUUAU [Cac Sensor turn off v1 sub12] (Eterna round: R97, puzzle: Sensor, turn-off variant 1)”: the “apparent KD of MS2 coat protein” value runs as follows: (input ligand: FMN 200 uM) 78.9 nM; (input ligand: none) 84.6 nM.

In the case of “AAAAUGUCAGGAUAUUGUUAGUUUAGUUGUUUGUAUUAGUUCGAGAAGGGACAUGAGGAUCACCCAUGUGAAAA [Ex4 #68] (Eterna round: R97, puzzle: Exclusion 4)”, the “apparent KD of MS2 coat protein” value by setting is: (input ligand: FMN 200 uM) 42.5 nM; (input ligand: none) 35.8 nM.

For the sequence “CUGAGCUGAGGAUAUACAUGAGGAUCACCCAUGUAAAGUAGCUUGCGUACAGGCAGAUGUAGAAGGCAGUUCGG [Mod of JL 2 - Jieux - Exclusion 3] (Eterna round: R97, puzzle: Exclusion 3)”, the “apparent KD of MS2 coat protein” value by setting is: (input ligand: FMN 200 uM) 34.7 nM; (input ligand: none) 20.5 nM.

Consider “CACGGCUUAGGAUAUACAUGAGGAUCACCCAUGUGGGAAAGCCAAGGCGUGGUAAAGUGUAGAAGGAAGAAGGA [Solaedra] (puzzle: Exclusion 3)”, for which, under setting [3], the “apparent KD of MS2 coat protein” value worked out at 12.5 nM.

With “GCCUCACAUGAGGAUCACCCAUGUCAGGAUAUAGGAGACGGCAGAAAUCCUGCCAUCGCUAGAAGGGACUGGCA [Tirebi] (Eterna round: R96, puzzle: Exclusion 1)”, the “apparent KD of MS2 coat protein” value runs as follows: (input ligand: FMN 200 uM) 138 nM; under setting [1], 50.6 nM; (input ligand: none) 67 nM.

Consider “GCAGGAUAAGUCAGGAUAUACCUAUGGAUACAUAGGUAGAAGGGACAUGAGGAUCACCCAUGUGACUCACCUGC [Fiskers BMX 4 - 62] (puzzle: Brourd's mod of Exclusion 4)”, for which the “apparent KD of MS2 coat protein” value is, setting by setting: under setting [2], 95.6 nM; under setting [3], 27.8 nM; under setting [4], 27 nM.

For the sequence “ACUCAGUGAGGAUAUCGCCAGAGAACCGUAACGGUCUCUGAUGAGAAGGCACAUGAGGAUCACCCAUGUAAGCA [EX4 C.3] (Eterna round: R97, puzzle: Exclusion 4)”, the “apparent KD of MS2 coat protein” value worked out at 278 nM (input ligand: FMN 200 uM) and 174 nM (input ligand: none).

As for “AGCAUGCUAGGAUAUACGGGACAUUAGGGUUUGUCGUGUGGACAUGAGGAUCACCCAUGUAGAAGGAGCGUGCA [Mat - Exclusion 2 - Mod of Hyphema - D92] (puzzle: Exclusion 2)”, the “apparent KD of MS2 coat protein” value under setting [3] was found to be 46.5 nM.

As to “CAAACGGCUUUAGGAUAUGACUUUUCGUACAUGAGGAUCACCCAUGUCAGGACUGGUGGUGCGAGUCAGAAGGAGAGUCAAGAA [Eternabot solution 30] (Eterna round: R96, puzzle: Exclusion NG 2)”, the “apparent KD of MS2 coat protein” value (input ligand: FMN 200 uM) came to 94.3 nM, the “apparent KD of MS2 coat protein” value under setting [1] was found to be 99.2 nM and the “apparent KD of MS2 coat protein” value (input ligand: none) was 176 nM.

With “GCAAGCUUAAUCUGUAUGAACAUGAGGAUCACCCAUGUAUAAGGUAAUUCUGUUGGGUUUUUUAUUGCUCGUCUUAU [JR_STOV1_Sub026] (Eterna round: R97, puzzle: Sensor, turn-off variant 1)”, the “apparent KD of MS2 coat protein” value is, setting by setting: (input ligand: FMN 200 uM) 71.8 nM; (input ligand: none) 76.9 nM.

For the sequence “AAUAACAAGUUGAUCCUUCACAUGAGGAUCACCCAUGUGCUCGUCUUGUAAAGUACUAUCACGAAAGUGAUAGUACA (Eterna round: R97, puzzle: Sensor, turn-off variant 1)”, the “apparent KD of MS2 coat protein” value by setting is: (input ligand: FMN 200 uM) 256 nM; (input ligand: none) 249 nM.

As to “ACGUGAUAUCUGUCGGUGGACAUGAGGAUCACCCAUGUAAGCUUUUUGCUCGUCUUACAACCCGGUGACAGACCUUC [Essodiis] (puzzle: Sensor v3, turn-off variant 1)”, the “apparent KD of MS2 coat protein” value is, setting by setting: under setting [2], 138 nM; under setting [3], 275 nM; under setting [4], 166 nM.

For “GUAAAGUGAGGAUAUGGUAAAGUAAUUAUUUAGUAAUUAAUCCAGAAGGCACAUGAGGAUCACCCAUGUAAAUG [Mat - Exclusion 4 - D96] (puzzle: Exclusion 4)”, the “apparent KD of MS2 coat protein” value worked out at 44.6 nM under setting [2], 26.1 nM under setting [3] and 28.7 nM under setting [4].

Consider “AGAGUGCUGCGAGGAUAUACAUGAGGAUCACCCAUGUAAACGUGUGAGGCAAAGCCUCACACGAUGUAGAAGGCGCAGUACUCA [Mat - Exclusion NG 2 - Mod of JL - D37] (Eterna round: R96, puzzle: Exclusion NG 2)”, for which the “apparent KD of MS2 coat protein” value by setting is: (input ligand: FMN 200 uM) 19.6 nM; under setting [1], 11.7 nM; (input ligand: none) 21.5 nM.

Consider “UGCCUUUGAGGAUAUACGUAGAAAUAGAUUCAUGUAAAACUACAUGAGGAUCACCCAUGUAGAAGGCAAGGGCU [Mat - Exclusion 2 - JL Mod - D48] (Eterna round: R97, puzzle: Exclusion 2)”, for which the “apparent KD of MS2 coat protein” value runs as follows: (input ligand: FMN 200 uM) 164 nM; (input ligand: none) 24 nM.

For the sequence “GGUGGGCUAGGAUAUGCUUUGGGCAAGCAUUCCUUCGAUAAACUUGAGGAUCACCCAAGUAGAAGGAGCUUGCC [salish99_ex2_r4_026] (Eterna round: R97, puzzle: Exclusion 2)”, the “apparent KD of MS2 coat protein” value reads like this: (input ligand: FMN 200 uM) 11.5 nM; (input ligand: none) 10.6 nM.

As to “AAGUACCGUCACGAUAGUGAUGGUACAGCAAGCAUGUAAACAUGAGGAUCACCCAUGUCCUCAAUUGCUCGUCUUAU [Sensor 3 - 70] (puzzle: Sensor v3, turn-off variant 2)”, the “apparent KD of MS2 coat protein” value came to 725 nM under setting [2], 785 nM under setting [3] and 764 nM under setting [4].

(Values after the supplement of paper PMC9170038.)
